Molecular target: the molecule itself
Test: stopped-flow kinetics with light scattering detection, dilution from 10 to 1 mg/ml at 4 C, self-association
Text: High molecular weight forms are known to cause increased intensity of light scattering compared to monomer. Dissociation of the MabA present in the HPSEC shoulder, (apparent molecular weight of 213 kDa) would, therefore, be expected to result in a decrease in light scattering.

B1: MabA (antibody, human IgG2, V domains shown)
VH: QVQLVESGGGLVKPGGSLRLSCAASGFTFSDYYMNWIRQAPGKGLEWVSYISSSGSIIYYADSVKGRFTISRDNAKNSLYLQMNSLRAEDTAVYYCAREGRIAARGMDVWGQGTTVTVSS
VL: DIQMTQSPSSLSASVGDRVTITCRPSQSFSRYINWYQQKPGKAPKLLIYAASSLVGGVPSRFSGSGSGTDFTLTISSLQPEDFATYYCQQTYSNPPITFGQGTRLEIK
notes: Full-length human IgG2; also called anti-PDGFR-alpha antibody; human IgG2 anti-PDGFR-alpha antibody
Q: With B1 as the protein, how does the “apparent half-life of dissociation of the self-associated species” value read?
A: 14 s
